Here are results for eight molecules from patent US20090041783A1 (MOCHIDA PHARMACEUTICAL, published 2009).

Assay [1] concerns the target T1, human GPVI extracellular region-human Fc fusion protein (hGPVI-hFc) (human).
T1 construct: Expressed in COS-1, purified on Protein A; also called GPVI-HHH-hFc; hGPVIHHH-hFc
The assay can be described thus: competition ELISA on immobilised hGPVI-hFc: unlabelled antibody against labelled cF1232-37-2/COS. As to the method: (§1) To the plate, wherein hGPVI-hFc has been immobilized at 4 μg/mL, a mixture of peroxidase-labeled F1232-37-2 or cF1232-37-2 by the method described in EXAMPLE 14, and hGPVI-hFc, mGPVI-hFc, hGPVI-mL3-hFc, wherein these were prepared in EXAMPLE 7, or hGPVI-K59E-hFc (a fusion protein consisting of one amino acid mutated human GPVI extracellular region, wherein lysine at 59 of human GPVI is substituted for glutamic acid, and human Fc), which has been prepared by the same method as that of EXAMPLE 1 and diluted with 0.1% BSA/PBS was added, and the plate was incubated at 37° C. for one hour. After incubation, the mixture was developed using TMB solution, and absorbance at 450 nm was measured.
To confirm the reactivity of cF1232-37-2/CHO, using binding ability to hGPVI-hFc as an index, the competitive test with cF1232-37-2 prepared by transient gene expression system with COS cells was performed. The measurement method was in accordance with the method described in 17-3 of EXAMPLE 17. Using hGPVI-hFc as an immobilized protein, a competitive activity to labeled cF1232-37-2/COS was confirmed when unlabeled cF1232-37-2/CHO or cF1232-37-2/COS was added at a variety of concentration. It was confirmed that the reactivity of cF1232-37-2/CHO is equivalent to that of cF1232-37-2/COS.

The target of a further assay is T2, hGPVI-mL3-hFc (human (loop 3 from mouse)).
T2 construct: also called hGPVI-hFc-mL3
T2 sequence (chain, as listed by the source limits assumed): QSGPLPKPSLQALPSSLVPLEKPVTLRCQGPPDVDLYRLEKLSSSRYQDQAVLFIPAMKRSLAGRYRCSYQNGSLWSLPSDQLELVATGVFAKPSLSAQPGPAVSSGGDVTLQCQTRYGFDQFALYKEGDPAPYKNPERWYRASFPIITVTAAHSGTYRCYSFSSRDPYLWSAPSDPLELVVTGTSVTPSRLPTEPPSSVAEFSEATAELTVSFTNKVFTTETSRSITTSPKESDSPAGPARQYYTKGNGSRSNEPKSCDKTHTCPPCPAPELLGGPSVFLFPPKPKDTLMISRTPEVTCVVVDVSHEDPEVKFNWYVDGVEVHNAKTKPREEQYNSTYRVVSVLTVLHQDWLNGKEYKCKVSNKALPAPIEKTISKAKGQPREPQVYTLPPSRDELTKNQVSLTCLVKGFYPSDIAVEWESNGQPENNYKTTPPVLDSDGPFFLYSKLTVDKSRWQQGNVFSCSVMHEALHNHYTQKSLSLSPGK
Put plainly: competition ELISA on hGPVI-hFc plate; soluble hGPVI-mL3-hFc as competitor. As to the method: as §1

The next assay deals with T3, hGPVI-K59E-hFc (human).
T3 construct: Fusion of human GPVI extracellular region with lysine at 59 of human GPVI substituted for glutamic acid, and human Fc
T3 sequence (chain, as listed by the source K59E K59E limits assumed): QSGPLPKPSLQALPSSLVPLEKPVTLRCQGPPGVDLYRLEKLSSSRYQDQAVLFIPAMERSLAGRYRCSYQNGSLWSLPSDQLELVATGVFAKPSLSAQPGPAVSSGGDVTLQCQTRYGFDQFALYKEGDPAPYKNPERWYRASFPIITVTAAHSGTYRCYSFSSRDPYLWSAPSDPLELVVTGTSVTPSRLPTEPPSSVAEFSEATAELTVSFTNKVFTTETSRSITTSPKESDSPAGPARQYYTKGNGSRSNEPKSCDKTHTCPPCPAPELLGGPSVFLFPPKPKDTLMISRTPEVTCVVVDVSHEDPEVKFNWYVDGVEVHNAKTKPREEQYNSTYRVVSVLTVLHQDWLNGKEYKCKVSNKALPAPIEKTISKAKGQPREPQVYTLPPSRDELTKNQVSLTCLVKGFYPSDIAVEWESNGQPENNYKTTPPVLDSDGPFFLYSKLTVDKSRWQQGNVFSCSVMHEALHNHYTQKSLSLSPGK
Put plainly: competition ELISA on hGPVI-hFc plate; soluble hGPVI-K59E-hFc as competitor. The procedure:
as §1

The target in assay [2] is T1, human GPVI extracellular region-human …. Put plainly: ELISA on immobilised hGPVI-hFc (GPVI antigen binding assay of Example 31).
The target is the same in assay [3]. Put plainly: SPR (BIACORE 3000), hGPVI-hFc on CM5 chip, 0-800 nM analyte, bivalent analyte fit. As to the method: (§2) Dissociation constant for F1232-37-2 (whole antibody) prepared in EXAMPLE 2, and F(ab′)2 and Fab prepared in 22-1 and 21-2 was measured with Protein Interaction Analyzer BIACORE 3000 (BIACORE). That is, to sensorchip CM5 (BIACORE) hGPVI-hFc prepared in EXAMPLE 1 was bound according to the manual. Then a series of dilution from 0 to 800 nM of each antibody was prepared with HBS-EP buffer (BIACORE) and analyzed with BIACORE 3000. After completion of antibody binding, chip was regenerated with glycine buffer (pH 1.5) (BIACORE). Regarding the results of whole antibody and F(ab′)₂, evaluation software Bivalent analyte (BIACORE) was used for analysis; 1:1 Binding for Fab analysis. Then the dissociation constant was calculated. As a result, dissociation constant of F1232-37-2 F(ab′)2 and Fab was about 0.7 and 0.6, respectively, when that of whole antibody defined as one.

Assay [4] has the same target. Put plainly: SPR (BIACORE 3000), hGPVI-hFc on CM5 chip, 0-800 nM analyte, 1:1 binding fit. As to the method: as §2
Assay [5] shares this target. Put plainly: ELISA on immobilised hGPVI-hFc, peroxidase-labelled anti-mouse immunoglobulin antibody. As to the method: Binding activity to the antigen was detected by ELISA. To each well of immunoplate immobilized with hGPVI-hFc (prepared by the method described in EXAMPLE 2 and the like), F1232-37-2 antibody and F1232-37-2 PEGylated antibody, wherein both antibodies had been adjusted to the same concentration, was added and the plate was incubated at 37° C. for one hour. The well was washed with saline containing 0.05% Tween20. Then 50 μL of peroxidase-labeled anti-mouse immunoglobulin antibody (DAKO, P260), which had been diluted by 1000-fold with 10% rabbit serum-containing D-PBS, was added to each well. After incubation at 37° C. for one hour, coloring reaction by the TMB substrate was done to measure an absorbance at 450 nm with plate spectro-photometer (Molecular Devices, Wako). As a result, it was confirmed that both F1232-37-2 antibody and PEGylated F1232-37-2 antibody have almost equivalent binding activity.

Assay [6] has the same target. The assay can be described thus: SPR (BIACORE3000), GPVI-Fc on CM5 chip, antibody 1.25-40 nM as analyte, bivalent analyte fit. The procedure:
(§3) Dissociation constant for the anti-GPVI monoclonal antibody prepared in EXAMPLE 2 was measured using protein interaction analyzer BIACORE3000 (BIACORE). That is, to sensor chip, CM5 chip (BIACORE), GPVI substitution mutant (hGPVIHHH-hFc and FFH-hFc) that is prepared in EXAMPLE 1 was linked according to the manual. Then each antibody was diluted with HBS-EP buffer solution (BIACORE) to prepare a series of diluted solution from 1.25 to 40 nM, and analyzed with BIACORE3000. Every each antibody bound chip, the chip was regenerated with glycine buffer solution at pH1.5. The obtained result was analyzed with Bivalent analyte, the evaluation software (BIACORE) to calculate dissociation constant. It was shown that each anti-GPVI monoclonal antibody has a sufficient affinity to GPVI-HHH-hFc.

The target in assay [7] is T4, cynomolgus monkey D1D2-human D3 chimeric GPVI-human Fc fusion protein (GPVI-FFH-hFc) (cynomolgus monkey (D1, D2) and human …).
T4 construct: also called Monkey GPVI
T4 sequence (chain, as listed by the source mutant limits assumed): as the sequence (chain, as listed by the source K59E K59E limits assumed) above, with S2R, E59K, S61H, L78P, R166G, V181M, P442S counted along it
Described as above. The procedure: as §3

For assay [8], the target named is T1, human GPVI extracellular region-human …. The assay can be described thus: blocking ELISA: binding of hGPVI-hFc to immobilised collagen in the presence of the antibody (panel Comparsion of mouse anti-GPVI monoclonal antibodies).
The target is the same in assay [9]. Put plainly: competition ELISA on immobilised hGPVI-hFc: unlabelled antibody against the peroxidase-labelled mouse antibody of the panel titled F1232-10-2 competition assay (the text, paragraph 248, names F1232-10-1); x axis relative amount to labeled Ab (fold). As to the method: Next, by using the peroxidase-labeled antibody, the competitive test for a variety of purified antibody was performed. That is, 25 μL of the above labeled antibody and 25 μL of each purified antibody were added to well of hGP-hFc-immobilized plate. After incubation at 37° C. for one hour, the well was washed five times with the saline containing 0.05% Tween20, and the reaction mixture was developed with TMB solution (BioFix). After incubation at room temperature for 10 minutes, the reaction was terminated with 0.5 M sulfuric acid solution and an absorbance at 450 nm was measured with the plate spectrophotometer (Multi-Scan JX, Dainippon Pharmaceutical).
To compare an antigen binding property of mouse/human chimeric antibody with that of the corresponding mouse monoclonal antibody, in the same method as that of EXAMPLE 14, peroxidase-labeled F1232-37-2, F1232-18-3, F1232-43-3 and F1232-10-1 were prepared. […] Further, an inhibiting activity of each antibody for binding of GPVI to collagen was measured according to the method described in EXAMPLE 2 or EXAMPLE 14. […]

T1 sequence (chain, as listed by the source limits assumed): as the sequence (chain, as listed by the source K59E K59E limits assumed) above, with E59K counted along it

B1: cF1232-37-2 (mouse/human chimeric antibody of F1232-37-2) (antibody, human IgG4, V domains shown)
VH: VQLQQSGPELVRPGESVKISCKGSGYTFTDYAIHWVKLSHAKSLEWIGVISIYYDDTNYNQKFKGKATMTVDKSSSTAYLELARLTSEDSAIYYCARRRDSSGPYAMDYWGQGTSVTVSS
VL: DIVLTQSPASLAVSLGQRATISCRASESVDSYGNSFMHWYQQKPGQPPKLLIYRASNLESGIPARFSGSGSRTDFTLTINPVEADDVATYYCQQSNEDPYTFGGGTKLEIKR
notes: Mouse V regions of F1232-37-2 with human IgG4 (Cgamma4) and human kappa constant regions; plasmids pTK-2510 and pTK-2511; made in COS-1 (/COS) and in CHO DXB11 (/CHO); also called cF1232-37-2/COS; cF1232-37-2/CHO
On to B1, for which, in [1], the “IC50 (read off the curve)” value is about 1 µg/mL. Also, the binding result with hGPVI-mL3-hFc and with hGPVI-K59E-hFc was “binds” in each case.

B2: PEG-F1232-372Fab (Fab, V domains shown)
VH: B1 VH
VL: DIVLTQSPASLAVSLGQRATISCRASESVDSYGNSFMHWYQQKPGQPPKLLIYRASNLESGIPARFSGSGSRTDFTLTINPVEADDVATYYCQQSNEDPYTFGGGTKLEIK
modifications: linear 20 KD PEG with succinimide group; sites not given ; Linear 20 KD PEG with succinimide group coupled to the Fab; sites and number not given.
notes: also called PEGylated F1232-37-2 Fab antibody; PEGylated F1232-37-2Fab fragment; copies: 1 + 1
Consider B2, for which the half-maximal effective concentration (EC50 (read off the curve)) in assay [2] was about 0.3 µg/mL.

B3: F1232-37-2 F(ab')2 (other)
VH: B1 VH
VL: DIVLTQSPASLAVSLGQRATISCRASESVDSYGNSFMHWYQQKPGQPPKLLIYRASNLESGIPARFSGSGSRTDFTLTINPVEADDVATYYCQQSNEDPYTFGGGTKLEIKRADAA
notes: F(ab')2 fragment made from mouse F1232-37-2 with Lysyl Endopeptidase; also called mouse monoclonal antibody F1232-37-2 F(ab')2
For B3, the “dissociation constant relative to that of the whole antibody (defined as one)” value in assay [3] is ~0.7 fold of whole F1232-37-2.

B4: F1232-37-2 Fab (Fab, V domains shown)
VH: B1 VH
VL: B1 VL
notes: Fab made from mouse F1232-37-2 with papain; also called F1232-37-2 Fab antibody
Turning to B4, the “EC50 (read off the curve)” value in [2] is about 0.3 µg/mL. In [4], the “dissociation constant relative to that of the whole antibody (defined as one)” value was ~0.6 fold of whole F1232-37-2.

B5: PEGylated F1232-37-2 antibody (antibody, V domains shown)
VH: B1 VH
VL: B1 VL
modifications: linear PEG of 20 KD coupled through a succinimide group; sites not stated
notes: Whole mouse F1232-37-2 reacted with PEG at antibody:PEG 1:10 (molar) and purified on Q Sepharose HP; also called F1232-37-2 PEGylated antibody
Regarding B5, the “EC50 (read off the curve)” value in assay [5] was about 0.02 µg/mL.

B6: F1232-37-2 (antibody, V domains shown)
VH: B1 VH
VL: B1 VL
notes: Mouse hybridoma monoclonal antibody; also called F1232-37-2 antibody; F1232-37-2 whole antibody
Turning to B6, the Kd in [6] was 0.403 nM; in assay [7] it was 1 nM. In addition, in [5], the “EC50 (read off the curve)” value was about 0.02 µg/mL. In addition, the binding result with hGPVI-mL3-hFc and in the assay with hGPVI-K59E-hFc was “binds” in each case.

B7: F1232-10-1 (antibody, V domains shown)
VH: VTLKESGPGILQPSQTLSLTCSFSGFSLSTYGIGVGWIRQPSGKGLEWLAHIWWNDDKYYNTALKSRLTISKDTSNNQVFLKIASVDTADTATYYCARVYYYGSSFDYWGQGTTLTVSS
VL: DIQMTQSPASLSASVGETVTITCRASENIFSILAWYQQKQGKSPQLLVYAATNLADGVPSRFSGSGSGTQFSLKINSLQPEDFGSYYCQHFYGTPWTFGGGTKLEIKR
notes: Mouse hybridoma monoclonal antibody
For the molecule B7, the binding result in assay [8] is reported as “binds”.

B8: cF1232-10-1 (antibody, human IgG4, V domains shown)
VH: B7 VH
VL: B7 VL
notes: Mouse/human chimeric antibody of F1232-10-1; human IgG4 and kappa constant regions; COS-1
As to B8, the binding result in assay [9] is “binds”.
